{"source": "patent US20160264649A1", "assay_in_all_cases": "cell-based or functional assay", "key": {"[1]": {"molecular_target": "HIV-1 Env of isolate MGRM-F1-023 (subtype F) (HIV-1)"}, "[2]": {"molecular_target": "HIV-1 Env of isolate 92WR020 (subtype A) (HIV-1)"}, "[3]": {"molecular_target": "HIV-1 Env of isolate MGRM-AE-006 (subtype AE) (HIV-1)"}, "[4]": {"molecular_target": "HIV-1 Env of isolate VLGCA1 (subtype A) (HIV-1)"}, "[5]": {"molecular_target": "HIV-1 Env of isolate MGRM-F1-008 (subtype F) (HIV-1)"}, "[6]": {"molecular_target": "HIV-1 Env of isolate MGRM-AE-008 (subtype AE) (HIV-1)"}, "[7]": {"molecular_target": "HIV-1 Env of isolate 92UG037 (subtype A) (HIV-1)"}, "[8]": {"molecular_target": "HIV-1 Env of isolate CMU02 (subtype AE) (HIV-1)"}, "[9]": {"molecular_target": "HIV-1 Env of isolate MGRM-D-026 (subtype D) (HIV-1)"}, "[10]": {"molecular_target": "HIV-1 Env of isolate MGRM-F1-021 (subtype F) (HIV-1)"}, "[11]": {"molecular_target": "HIV-1 Env of isolate MGRM-D-014 (subtype D) (HIV-1)"}, "[12]": {"molecular_target": "HIV-1 Env of isolate MGRM-AE-007 (subtype AE) (HIV-1)"}, "[13]": {"molecular_target": "HIV-1 Env of isolate 92TH021 (subtype AE) (HIV-1)"}, "[14]": {"molecular_target": "HIV-1 Env of isolate MGRM-D-022 (subtype D) (HIV-1)"}, "[15]": {"molecular_target": "HIV-1 Env of isolate MGRM-D-005 (subtype D) (HIV-1)"}, "[16]": {"molecular_target": "HIV-1 Env of isolate MGRM-F1-022 (subtype F) (HIV-1)"}, "[17]": {"molecular_target": "HIV-1 Env of isolate 93WR029 (subtype A) (HIV-1)"}, "[18]": {"molecular_target": "HIV-1 Env of isolate MGRM-F1-010 (subtype F) (HIV-1)"}, "[19]": {"molecular_target": "HIV-1 Env of isolate 92WR024 (subtype A) (HIV-1)"}, "[20]": {"molecular_target": "HIV-1 Env of isolate MGRM-D-019 (subtype D) (HIV-1)"}, "[21]": {"molecular_target": "HIV-1 Env of isolate MGRM-D-013 (subtype D) (HIV-1)"}, "[22]": {"molecular_target": "HIV-1 Env of isolate MGRM-D-018 (subtype D) (HIV-1)"}, "[23]": {"molecular_target": "HIV-1 Env of isolate 93UG077 (subtype A) (HIV-1)"}, "[24]": {"molecular_target": "HIV-1 Env of isolate 92UG031 (subtype A) (HIV-1)"}, "[25]": {"molecular_target": "HIV-1 Env of isolate MGRM-F1-015 (subtype F) (HIV-1)"}, "[26]": {"molecular_target": "HIV-1 Env of isolate MGRM-F1-014 (subtype F) (HIV-1)"}, "[27]": {"molecular_target": "HIV-1 Env of isolate MGRM-AE-001 (subtype AE) (HIV-1)"}, "[28]": {"molecular_target": "HIV-1 Env of isolate MGRM-D-008 (subtype D) (HIV-1)"}, "[29]": {"molecular_target": "HIV-1 Env of isolate MGRM-D-011 (subtype D) (HIV-1)"}, "[30]": {"molecular_target": "HIV-1 Env of isolate MGRM-F1-013 (subtype F) (HIV-1)"}, "[31]": {"molecular_target": "HIV-1 Env of isolate MGRM-D-004 (subtype D) (HIV-1)"}, "[32]": {"molecular_target": "HIV-1 Env of isolate MGRM-F1-018 (subtype F) (HIV-1)"}, "[33]": {"molecular_target": "HIV-1 Env of isolate 92WR009 (subtype A) (HIV-1)"}, "[34]": {"molecular_target": "HIV-1 Env of isolate 92UG114 (subtype D) (HIV-1)"}, "[35]": {"molecular_target": "HIV-1 Env of isolate MGRM-AE-004 (subtype AE) (HIV-1)"}, "[36]": {"molecular_target": "HIV-1 Env of isolate MGRM-D-020 (subtype D) (HIV-1)"}, "[37]": {"molecular_target": "HIV-1 Env of isolate MGRM-D-002 (subtype D) (HIV-1)"}, "[38]": {"molecular_target": "HIV-1 Env of isolate MGRM-D-028 (subtype D) (HIV-1)"}, "[39]": {"molecular_target": "HIV-1 Env of isolate MGRM-D-024 (subtype D) (HIV-1)"}, "[40]": {"molecular_target": "HIV-1 Env of isolate MGRM-F1-012 (subtype F) (HIV-1)"}, "[41]": {"molecular_target": "HIV-1 Env of isolate MGRM-F1-004 (subtype F) (HIV-1)"}, "[42]": {"molecular_target": "HIV-1 Env of isolate MGRM-F1-017 (subtype F) (HIV-1)"}, "[43]": {"molecular_target": "HIV-1 Env of isolate 94 KE 105 (subtype AC) (HIV-1)"}, "[44]": {"molecular_target": "HIV-1 Env of isolate MGRM-D-016 (subtype D) (HIV-1)"}, "[45]": {"molecular_target": "HIV-1 Env of isolate MGRM-AE-003 (subtype AE) (HIV-1)"}, "[46]": {"molecular_target": "HIV-1 Env of isolate MGRM-D-021 (subtype D) (HIV-1)"}, "[47]": {"molecular_target": "HIV-1 Env of isolate MGRM-D-029 (subtype D) (HIV-1)"}, "[48]": {"molecular_target": "HIV-1 Env of isolate MGRM-F1-016 (subtype F) (HIV-1)"}, "[49]": {"molecular_target": "HIV-1 Env of isolate 92WR021 (subtype A) (HIV-1)"}, "[50]": {"molecular_target": "HIV-1 Env of isolate MGRM-D-012 (subtype D) (HIV-1)"}, "[51]": {"molecular_target": "HIV-1 Env of isolate MGRM-F1-020 (subtype F) (HIV-1)"}, "[52]": {"molecular_target": "HIV-1 Env of isolate MGRM-F1-006 (subtype F) (HIV-1)"}, "[53]": {"molecular_target": "HIV-1 Env of isolate MGRM-AE-002 (subtype AE) (HIV-1)"}, "[54]": {"molecular_target": "HIV-1 Env of isolate MGRM-AE-005 (subtype AE) (HIV-1)"}, "[55]": {"molecular_target": "HIV-1 Env of isolate MGRM-D-001 (subtype D) (HIV-1)"}, "[56]": {"molecular_target": "HIV-1 Env of isolate MGRM-D-003 (subtype D) (HIV-1)"}, "[57]": {"molecular_target": "HIV-1 Env of isolate 92WR026 (subtype A) (HIV-1)"}, "[58]": {"molecular_target": "HIV-1 Env of isolate 94UG103 (subtype A) (HIV-1)"}}}
{"substance": "PGT-145 (4995_P16) (antibody)", "values": [{"measurement": "IC50 (pseudovirus neutralization)", "setting": "[1]", "result": 5.88, "unit": "µg/mL"}, {"measurement": "IC50 (pseudovirus neutralization)", "setting": "[2]", "result": 0.997, "unit": "µg/mL"}, {"measurement": "IC50 (pseudovirus neutralization)", "setting": "[3]", "result": "> 50", "unit": "µg/mL"}, {"measurement": "IC50 (pseudovirus neutralization)", "setting": "[4]", "result": 8.01, "unit": "µg/mL"}, {"measurement": "IC50 (pseudovirus neutralization)", "setting": "[5]", "result": 0.228, "unit": "µg/mL"}, {"measurement": "IC50 (pseudovirus neutralization)", "setting": "[6]", "result": 1.46, "unit": "µg/mL"}, {"measurement": "IC50 (pseudovirus neutralization)", "setting": "[7]", "result": 3.15, "unit": "µg/mL"}, {"measurement": "IC50 (pseudovirus neutralization)", "setting": "[8]", "result": 1.43, "unit": "µg/mL"}, {"measurement": "IC50 (pseudovirus neutralization)", "setting": "[9]", "result": 0.41, "unit": "µg/mL"}, {"measurement": "IC50 (pseudovirus neutralization)", "setting": "[10]", "result": 8.04, "unit": "µg/mL"}, {"measurement": "IC50 (pseudovirus neutralization)", "setting": "[11]", "result": 2.51, "unit": "µg/mL"}, {"measurement": "IC50 (pseudovirus neutralization)", "setting": "[12]", "result": 0.181, "unit": "µg/mL"}, {"measurement": "IC50 (pseudovirus neutralization)", "setting": "[13]", "result": 0.013, "unit": "µg/mL"}, {"measurement": "IC50 (pseudovirus neutralization)", "setting": "[14]", "result": 34.3, "unit": "µg/mL"}, {"measurement": "IC50 (pseudovirus neutralization)", "setting": "[15]", "result": 10.4, "unit": "µg/mL"}, {"measurement": "IC50 (pseudovirus neutralization)", "setting": "[16]", "result": 0.009, "unit": "µg/mL"}, {"measurement": "IC50 (pseudovirus neutralization)", "setting": "[17]", "result": "> 50", "unit": "µg/mL"}, {"measurement": "IC50 (pseudovirus neutralization)", "setting": "[18]", "result": 3.32, "unit": "µg/mL"}, {"measurement": "IC50 (pseudovirus neutralization)", "setting": "[19]", "result": 0.069, "unit": "µg/mL"}, {"measurement": "IC50 (pseudovirus neutralization)", "setting": "[20]", "result": 0.111, "unit": "µg/mL"}, {"measurement": "IC50 (pseudovirus neutralization)", "setting": "[21]", "result": 3.48, "unit": "µg/mL"}, {"measurement": "IC50 (pseudovirus neutralization)", "setting": "[22]", "result": 0.065, "unit": "µg/mL"}, {"measurement": "IC50 (pseudovirus neutralization)", "setting": "[23]", "result": "> 50", "unit": "µg/mL"}, {"measurement": "IC50 (pseudovirus neutralization)", "setting": "[24]", "result": 3.22, "unit": "µg/mL"}, {"measurement": "IC50 (pseudovirus neutralization)", "setting": "[25]", "result": 1.76, "unit": "µg/mL"}, {"measurement": "IC50 (pseudovirus neutralization)", "setting": "[26]", "result": 0.009, "unit": "µg/mL"}, {"measurement": "IC50 (pseudovirus neutralization)", "setting": "[27]", "result": 20.9, "unit": "µg/mL"}, {"measurement": "IC50 (pseudovirus neutralization)", "setting": "[28]", "result": 0.025, "unit": "µg/mL"}, {"measurement": "IC50 (pseudovirus neutralization)", "setting": "[29]", "result": 14.7, "unit": "µg/mL"}, {"measurement": "IC50 (pseudovirus neutralization)", "setting": "[30]", "result": 0.402, "unit": "µg/mL"}, {"measurement": "IC50 (pseudovirus neutralization)", "setting": "[31]", "result": 10.9, "unit": "µg/mL"}, {"measurement": "IC50 (pseudovirus neutralization)", "setting": "[32]", "result": 1.02, "unit": "µg/mL"}, {"measurement": "IC50 (pseudovirus neutralization)", "setting": "[33]", "result": 0.026, "unit": "µg/mL"}, {"measurement": "IC50 (pseudovirus neutralization)", "setting": "[34]", "result": 20.1, "unit": "µg/mL"}, {"measurement": "IC50 (pseudovirus neutralization)", "setting": "[35]", "result": 0.006, "unit": "µg/mL"}, {"measurement": "IC50 (pseudovirus neutralization)", "setting": "[36]", "result": 10, "unit": "µg/mL"}, {"measurement": "IC50 (pseudovirus neutralization)", "setting": "[37]", "result": "> 50", "unit": "µg/mL"}, {"measurement": "IC50 (pseudovirus neutralization)", "setting": "[38]", "result": 0.721, "unit": "µg/mL"}, {"measurement": "IC50 (pseudovirus neutralization)", "setting": "[39]", "result": 0.224, "unit": "µg/mL"}, {"measurement": "IC50 (pseudovirus neutralization)", "setting": "[40]", "result": 0.113, "unit": "µg/mL"}, {"measurement": "IC50 (pseudovirus neutralization)", "setting": "[41]", "result": 0.361, "unit": "µg/mL"}, {"measurement": "IC50 (pseudovirus neutralization)", "setting": "[42]", "result": 0.286, "unit": "µg/mL"}, {"measurement": "IC50 (pseudovirus neutralization)", "setting": "[43]", "result": 1.32, "unit": "µg/mL"}, {"measurement": "IC50 (pseudovirus neutralization)", "setting": "[44]", "result": "> 50", "unit": "µg/mL"}, {"measurement": "IC50 (pseudovirus neutralization)", "setting": "[45]", "result": 0.552, "unit": "µg/mL"}, {"measurement": "IC50 (pseudovirus neutralization)", "setting": "[46]", "result": "> 50", "unit": "µg/mL"}, {"measurement": "IC50 (pseudovirus neutralization)", "setting": "[47]", "result": 0.03, "unit": "µg/mL"}, {"measurement": "IC50 (pseudovirus neutralization)", "setting": "[48]", "result": 17.5, "unit": "µg/mL"}, {"measurement": "IC50 (pseudovirus neutralization)", "setting": "[49]", "result": 1.62, "unit": "µg/mL"}, {"measurement": "IC50 (pseudovirus neutralization)", "setting": "[50]", "result": "> 50", "unit": "µg/mL"}, {"measurement": "IC50 (pseudovirus neutralization)", "setting": "[51]", "result": 0.816, "unit": "µg/mL"}, {"measurement": "IC50 (pseudovirus neutralization)", "setting": "[52]", "result": 13.6, "unit": "µg/mL"}, {"measurement": "IC50 (pseudovirus neutralization)", "setting": "[53]", "result": 1.87, "unit": "µg/mL"}, {"measurement": "IC50 (pseudovirus neutralization)", "setting": "[54]", "result": 0.967, "unit": "µg/mL"}, {"measurement": "IC50 (pseudovirus neutralization)", "setting": "[55]", "result": 0.56, "unit": "µg/mL"}, {"measurement": "IC50 (pseudovirus neutralization)", "setting": "[56]", "result": 0.006, "unit": "µg/mL"}, {"measurement": "IC50 (pseudovirus neutralization)", "setting": "[57]", "result": 1.45, "unit": "µg/mL"}, {"measurement": "IC50 (pseudovirus neutralization)", "setting": "[58]", "result": 0.331, "unit": "µg/mL"}]}
